The values that follow come from US20220056104A1 (Janssen / Centocor, published 2022).

Experiment [1] deals with T1, Recombinant DR3-Fc (R&D Systems, cat. #943-D3) (UniProt Q93038 25-199, limits assumed).
T1 construct: dimeric MW~92 kDa; also called DR3 receptor; Fc-DR3; not shown: Fc part of the bought fusion
T1 sequence (looked up): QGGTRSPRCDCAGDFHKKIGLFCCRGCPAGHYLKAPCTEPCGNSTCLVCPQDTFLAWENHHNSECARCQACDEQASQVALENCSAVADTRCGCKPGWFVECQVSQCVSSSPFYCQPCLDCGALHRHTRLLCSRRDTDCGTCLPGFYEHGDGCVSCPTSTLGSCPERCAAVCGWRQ
As to the kind of experiment: ELISA, DR3-Fc immobilized. On the procedure: (§1) All ELISA-based measurements were collected in triplicate, and error values report the standard error between measurements. Recombinant DR3-Fc (R&D Systems, cat. #943-D3), dimeric MW˜92 kDa, was non-specifically immobilized onto plates (Nunc maxisorp, cat. #436110) in 100 μL DR3-Fc, diluted to 10 μg/mL onto a 96-well White Maxisorp plate (Nunc, cat #436110) (O/N, 4° C.). Plates were block for 1 hour at room temperature with 250 μl/well of casein buffer and blocking buffer was removed. 50 μL of TL1A variants were diluted in StartingBlock PBS (Thermo Fisher Scientific), at 25 μg/mL, diluting 3× over each well, according to the plate map description for 20160623) per well on a 96-well White Maxisorp plate (Nunc, cat #: 436110) (overnight at 4° C.).
(§2) Plates were washed three times with TBST. 100 μl/well polyclonal rabbit anti-human TL1A-biotin antibody (diluted 1:1000 in Starting Block PBS) was added and plates were incubated for 1 hour at room temperature with shaking at 150 rpm. TL1A-biotin antibody was removed and 100 μl/well streptavidin-HRP conjugate (diluted 1:10,000 in Starting Block PBS) was added to plates. […] 100 μl/well POD Chemiluminescence substrate (Roche, cat #: 11582950001) was added immediately prior to reading plate luminescence using a Molecular Devices M5 plate reader with a delay setting of 100 ms.

The target in experiment [2] is T2, DcR3 (UniProt O95407 30-300, limits assumed).
T2 construct: the construct is not described; also called decoy receptor DcR3; TNFRSF6B
T2 sequence (looked up): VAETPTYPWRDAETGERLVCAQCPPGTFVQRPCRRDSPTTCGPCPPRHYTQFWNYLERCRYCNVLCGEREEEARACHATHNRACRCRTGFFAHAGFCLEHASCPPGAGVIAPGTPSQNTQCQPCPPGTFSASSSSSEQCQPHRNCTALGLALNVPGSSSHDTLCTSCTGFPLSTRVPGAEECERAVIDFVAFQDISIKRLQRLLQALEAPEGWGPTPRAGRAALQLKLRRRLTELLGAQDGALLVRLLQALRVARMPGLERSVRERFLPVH
Description: ELISA, DcR3. (In general: ELISA stands for enzyme-linked immunosorbent assay.)

Experiment [3] has as its target T2, DcR3. Description: ELISA, DcR3. This is another data set of the same source.
Experiment [4] has as its target T1, Recombinant DR3-Fc (R&D Systems, cat. …). As to the kind of experiment: ELISA, TL1A construct immobilized, DR3 titrated.
Experiment [5] has the same target. Description: ELISA, DR3-Fc immobilized. In outline: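 DR3-Fc (10 μg/mL) was coated overnight at 4 °C, blocked with casein, then incubated overnight at 4 °C with TL1A variants from 25 μg/mL in 3-fold dilutions. Bound TL1A was detected with biotinylated rabbit anti-human TL1A and streptavidin-HRP, read by chemiluminescence; triplicates, errors as standard error.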
The source holds these as a separate data set.

Experiment [6] shares this target. Description: ELISA, DR3-Fc immobilized. Here is the method:
as §1
Plates were washed three times with TBST. 100 μl/well polyclonal rabbit anti-human TL1A-biotin antibody (diluted 1:1000 in Starting Block PBS) was added and plates were incubated for 1 hour at room temperature with shaking at 150 rpm. TL1A-biotin antibody was removed and 100 μl/well streptavidin-HRP conjugate (diluted 1:10,000 in Starting Block PBS) was added to plates. Plates were incubated for 1 hour at room temperature with shaking at 150 rpm. Plates were washed three times with TBST. 100 μl/well POD Chemiluminescence substrate (Roche, cat #: 11582950001) was added immediately prior to reading plate luminescence using a Molecular Devices M5 plate reader with a delay setting of 100 ms.
These combination mutants were tested for binding to DR3 and DcR3 (FIGS. 5E and 5F, respectively).
This is another data set of the same source.

Experiment [7] shares this target. As to the kind of experiment: ELISA (FIG. 4C). Here is the method:
as §1, §2

Read-outs that look alike come from different tables or passages of the source.

B1: TL1W2 (His-TEV-hTL1A 72-251) (ligand)
chain: HHHHHHENLYFQGLKGQEFAPSHQQVYAPLRADGDKPRAHLTVVRQTPTQHFKNQFPALHWEHELGLAFTKNRMNYTNKFLLIPESGDYFIYSQVTFRGMTSECSEIRQAGRPNKPDSITVVITKVTDSYPEPTQLLMGTKSVCEVGSNWFQPIYLGAMFSLQEGDKLMVNVSDISLVDYTKEDKTFFGAFLL
notes: Non-covalent trimer; entry holds the His-TEV tag; also called His-TL1A; His-TL1A (TL1W2)
As usually defined, the EC50 is the concentration that produces a half-maximal response. Take B1: the half-maximal effective concentration (EC50) is 6.8 nM in experiment [1]; 4.6 nM in the experiment with DcR3 [2]; 4.6 nM with DcR3 [3]; 2.5 nM in experiment [4]; 26.2 nM in experiment [5]; 26.2 nM in experiment [6]. Moreover, the “Rel EC50” value in the experiment with DcR3 [2] was 1 ratio; with DcR3 [3] it was 1 ratio (head: nM); in experiment [5], 1 ratio (head: nM); in experiment [6], 1 ratio.

B2: TL1W35 (C202S) (ligand)
chain: HHHHHHENLYFQGLKGQEFAPSHQQVYAPLRADGDKPRAHLTVVRQTPTQHFKNQFPALHWEHELGLAFTKNRMNYTNKFLLIPESGDYFIYSQVTFRGMTSECSEIRQAGRPNKPDSITVVITKVTDSYPEPTQLLMGTKSVSEVGSNWFQPIYLGAMFSLQEGDKLMVNVSDISLVDYTKEDKTFFGAFLL
As to B2, the binding result in experiment [7] was “no binding”.

B3: TL1W80 (His-TEV-TL1A K111A) (ligand)
chain: HHHHHHENLYFQGLKGQEFAPSHQQVYAPLRADGDKPRAHLTVVRQTPTQHFANQFPALHWEHELGLAFTKNRMNYTNKFLLIPESGDYFIYSQVTFRGMTSECSEIRQAGRPNKPDSITVVITKVTDSYPEPTQLLMGTKSVCEVGSNWFQPIYLGAMFSLQEGDKLMVNVSDISLVDYTKEDKTFFGAFLL
notes: also called TL1W80 (K111A)
For the molecule B3, the EC50 is 89.8 nM in the experiment with DcR3 [2], 16.3 nM with DcR3 [3], 30 nM in experiment [5] and 30 nM in experiment [6]. Further, the “Rel EC50” value with DcR3 [3] is 3.5 ratio (head: nM); in experiment [5], 1.1 ratio (head: nM); in experiment [6], 1.1 ratio.

B4: TL1W136 (His-TEV-TL1A K240F) (ligand)
chain: HHHHHHENLYFQGLKGQEFAPSHQQVYAPLRADGDKPRAHLTVVRQTPTQHFKNQFPALHWEHELGLAFTKNRMNYTNKFLLIPESGDYFIYSQVTFRGMTSECSEIRQAGRPNKPDSITVVITKVTDSYPEPTQLLMGTKSVCEVGSNWFQPIYLGAMFSLQEGDKLMVNVSDISLVDYTFEDKTFFGAFLL
notes: also called TL1W136 (K240F)
As to B4, the values for the EC50 (with DcR3 [3]; in experiment [5]) were 178 nM and 266 nM, respectively. In addition, the entries for the “Rel EC50” value (with DcR3 [3]; in experiment [5]) were 38.7 ratio (head: nM) and 10.1 ratio (head: nM), respectively.

B5: TL1W109 (His-TEV-TL1A S187L) (ligand)
chain: HHHHHHENLYFQGLKGQEFAPSHQQVYAPLRADGDKPRAHLTVVRQTPTQHFKNQFPALHWEHELGLAFTKNRMNYTNKFLLIPESGDYFIYSQVTFRGMTSECSEIRQAGRPNKPDSITVVITKVTDLYPEPTQLLMGTKSVCEVGSNWFQPIYLGAMFSLQEGDKLMVNVSDISLVDYTKEDKTFFGAFLL
notes: also called TL1W109 (S187L)
Take B5: the EC50 came out at 85.5 nM in the experiment with DcR3 [2], 15.5 nM with DcR3 [3], 17.7 nM in experiment [5] and 17.7 nM in experiment [6]. The “Rel EC50” value in the experiment with DcR3 [3] was 3.4 ratio (head: nM); in experiment [5], 0.7 ratio (head: nM); in experiment [6], 0.7 ratio.

B6: TL1W92 (His-TEV-TL1A M158Y) (ligand)
chain: HHHHHHENLYFQGLKGQEFAPSHQQVYAPLRADGDKPRAHLTVVRQTPTQHFKNQFPALHWEHELGLAFTKNRMNYTNKFLLIPESGDYFIYSQVTFRGYTSECSEIRQAGRPNKPDSITVVITKVTDSYPEPTQLLMGTKSVCEVGSNWFQPIYLGAMFSLQEGDKLMVNVSDISLVDYTKEDKTFFGAFLL
notes: also called TL1W92 (M158Y)
In the case of B6, the EC50 turned out to be 69.2 nM with DcR3 [2], 12.6 nM with DcR3 [3], 16.6 nM in experiment [5] and 16.6 nM in experiment [6]. For the same molecule, the “Rel EC50” value was 2.7 ratio (head: nM) with DcR3 [3], 0.6 ratio (head: nM) in experiment [5] and 0.6 ratio in experiment [6].

B7: TL1W122 (His-TEV-TL1A N207F) (ligand)
chain: HHHHHHENLYFQGLKGQEFAPSHQQVYAPLRADGDKPRAHLTVVRQTPTQHFKNQFPALHWEHELGLAFTKNRMNYTNKFLLIPESGDYFIYSQVTFRGMTSECSEIRQAGRPNKPDSITVVITKVTDSYPEPTQLLMGTKSVCEVGSFWFQPIYLGAMFSLQEGDKLMVNVSDISLVDYTKEDKTFFGAFLL
notes: also called TL1W122 (N207F)
Consider B7, for which the half-maximal effective concentration (EC50) is 58.5 nM with DcR3 [2], 10.6 nM with DcR3 [3], 30.2 nM in experiment [5] and 30.2 nM in experiment [6]. For the same molecule, the “Rel EC50” value is 2.3 ratio (head: nM) with DcR3 [3], 1.2 ratio (head: nM) in experiment [5] and 1.2 ratio in experiment [6].

B8: TL1W45 (His-TEV-TL1A E190F) (ligand)
chain: HHHHHHENLYFQGLKGQEFAPSHQQVYAPLRADGDKPRAHLTVVRQTPTQHFKNQFPALHWEHELGLAFTKNRMNYTNKFLLIPESGDYFIYSQVTFRGMTSECSEIRQAGRPNKPDSITVVITKVTDSYPFPTQLLMGTKSVCEVGSNWFQPIYLGAMFSLQEGDKLMVNVSDISLVDYTKEDKTFFGAFLL
notes: also called TL1W45 (E190F)
B8: the EC50 was 21.2 nM with DcR3 [2], 31.4 nM in experiment [5] and 31.4 nM in experiment [6]. The entries for the “Rel EC50” value in experiment [5] and in experiment [6] were 1.2 ratio (head: nM) and 1.2 ratio, respectively.

B9: TL1W95 (His-TEV-TL1A Q167A) (ligand)
chain: HHHHHHENLYFQGLKGQEFAPSHQQVYAPLRADGDKPRAHLTVVRQTPTQHFKNQFPALHWEHELGLAFTKNRMNYTNKFLLIPESGDYFIYSQVTFRGMTSECSEIRAAGRPNKPDSITVVITKVTDSYPEPTQLLMGTKSVCEVGSNWFQPIYLGAMFSLQEGDKLMVNVSDISLVDYTKEDKTFFGAFLL
notes: also called TL1W95 (Q167A)
Turning to B9, the EC50 was determined as 176 nM in the experiment with DcR3 [2], 32 nM with DcR3 [3], 17.1 nM in experiment [5] and 17.1 nM in experiment [6]. Besides, the “Rel EC50” value with DcR3 [3] is 7 ratio (head: nM); in experiment [5], 0.7 ratio (head: nM); in experiment [6] it was 0.7 ratio.

B10: TL1W34 (C162S, C202S) (ligand)
chain: HHHHHHENLYFQGLKGQEFAPSHQQVYAPLRADGDKPRAHLTVVRQTPTQHFKNQFPALHWEHELGLAFTKNRMNYTNKFLLIPESGDYFIYSQVTFRGMTSESSEIRQAGRPNKPDSITVVITKVTDSYPEPTQLLMGTKSVSEVGSNWFQPIYLGAMFSLQEGDKLMVNVSDISLVDYTKEDKTFFGAFLL
notes: also called TL1A-C162S, C202S; C162S, C202S TL1A variant
For the molecule B10, the binding result in experiment [7] is “no binding”.

B11: TL1W137 (His-TEV-TL1A K240S) (ligand)
chain: HHHHHHENLYFQGLKGQEFAPSHQQVYAPLRADGDKPRAHLTVVRQTPTQHFKNQFPALHWEHELGLAFTKNRMNYTNKFLLIPESGDYFIYSQVTFRGMTSECSEIRQAGRPNKPDSITVVITKVTDSYPEPTQLLMGTKSVCEVGSNWFQPIYLGAMFSLQEGDKLMVNVSDISLVDYTSEDKTFFGAFLL
notes: also called TL1W137 (K240S)
In the case of B11, in the experiment with DcR3 [3], the EC50 amounted to 11.8 nM and the “Rel EC50” value was 2.6 ratio (head: nM). Besides, in experiment [5], the half-maximal effective concentration (EC50) was found to be 336 nM and the “Rel EC50” value is 12.8 ratio (head: nM).

B12: TL1W38 (His-TEV-TL1A L123K) (ligand)
chain: HHHHHHENLYFQGLKGQEFAPSHQQVYAPLRADGDKPRAHLTVVRQTPTQHFKNQFPALHWEHEKGLAFTKNRMNYTNKFLLIPESGDYFIYSQVTFRGMTSECSEIRQAGRPNKPDSITVVITKVTDSYPEPTQLLMGTKSVCEVGSNWFQPIYLGAMFSLQEGDKLMVNVSDISLVDYTKEDKTFFGAFLL
notes: also called TL1W38 (L123K)
On to B12, for which the EC50 with DcR3 [2] was determined as 24.7 nM; with DcR3 [3], 24.7 nM; in experiment [5], 29.5 nM; in experiment [6], 29.4 nM. Moreover, the results for the “Rel EC50” value (with DcR3 [3]; in experiment [5]; in experiment [6]) were 5.4 ratio (head: nM), 1.1 ratio (head: nM) and 1.1 ratio, respectively.
